Measured values taken from article PMC10362054, “p53 restoration in small cell lung cancer identifies a latent cyclophilin-dependent necrosis mechanism” (Nature Communications, 2023).

Biological target: T1, Cyclophilin A (endogenous) (mouse (endogenous in mouse SCLC …, UniProt P17742 1-164))
T1 construct: cyclophilin A, encoded by Ppia, endogenous in cell lines derived from mouse SCLC tumors; also called CypA; PPIA; source: endogenous, mouse SCLC Type D (4711-18) and Type V (4716-10) cells, fixed cells
T1 sequence (P17742 whole entry): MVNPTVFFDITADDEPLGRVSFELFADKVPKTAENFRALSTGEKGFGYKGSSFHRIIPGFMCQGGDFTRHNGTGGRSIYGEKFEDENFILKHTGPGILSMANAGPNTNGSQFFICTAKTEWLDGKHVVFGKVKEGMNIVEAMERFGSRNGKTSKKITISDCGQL
Test: proximity ligation; Duolink PLA on fixed Type D (4711-18) and Type V (4716-10) mouse SCLC cells treated with 4-OHT for 48 h; endogenous proteins; antibodies to p53 and to cyclophilin A, D or E
Conditions: partners not purified

fold less PLA interaction in Type V cells than in Type D cells: ~10 fold
B1: p53 (endogenous, restored Trp53 allele) (natural protein, UniProt P02340 1-390, looked up)
chain: MTAMEESQSDISLELPLSQETFSGLWKLLPPEDILPSPHCMDDLLLPQDVEEFFEGPSEALRVSGAPAAQDPVTETPGPVAPAPATPWPLSSFVPSQKTYQGNYGFHLGFLQSGTAKSVMCTYSPPLNKLFCQLAKTCPVQLWVSATPPAGSRVRAMAIYKKSQHMTEVVRRCPHHERCSDGDGLAPPQHLIRVEGNLYPEYLEDRQTFRHSVVVPYEPPEAGSEYTTIHYKYMCNSSCMGGMNRRPILTIITLEDSSGNLLGRDSFEVRVCACPGRDRRTEEENFRKKEVLCPELPPGSAKRALPTCTSASPPQKKKPLDGEYFTLKIRGRKRFEMFRELNEALELKDAHATEESGDSRAHSSYLKTKKGQSTSRHKKTMVKKVGPDSD
notes: p53 expressed from the restored endogenous Trp53 allele (p53 R state) in cell lines derived from mouse SCLC tumors; source: endogenous, mouse SCLC Type D (4711-18) and Type V (4716-10) cells after 4-OHT, fixed cells
